Laboratory results: publication PMC12207370, “Macrocyclic Peptide Probes for Immunomodulatory Protein CD59: Potent Modulators of Bacterial Toxin Activity and Antibody‐Dependent Cytotoxicity” (Angewandte Chemie (International Ed. in English), 2025)

Target: T1, biotinylated CD59 (Homo sapiens, UniProt P13987)
T1 construct: Recombinant soluble human CD59 with an additional C-terminal cysteine residue
T1 sequence (P13987 26-102 limits assumed): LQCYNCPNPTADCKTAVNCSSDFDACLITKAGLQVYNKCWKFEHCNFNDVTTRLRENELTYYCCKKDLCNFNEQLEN
Experiment: mRNA-display cyclic peptide screen against CD59-biotin, NGS abundance after 6th selection round
Details: for Percentage Seq I: counts normalised by total counts of sample Seq I; for Percentage Seq I / Percentage Seq II: percentage of the pool; for Percentage Seq I / Percentage Seq II / Percentage Average / Percentage of the pool, averaged across the two sequencing samples / Percentage of the pool, Seq I / Percentage of the pool, Seq II: sheet R6; for Percentage Seq II: counts normalised by total counts of sample Seq II; for Percentage Average: percentage of the pool averaged across the two sequencing samples; for Counts Seq I / Counts Seq II: raw NGS counts of peptide sequence; for Counts Seq I: sequencing sample Seq I; for Counts Seq I / Counts Seq II / Counts (raw counts for peptide sequence), Seq I / Counts (raw counts for peptide sequence), Seq II: sheet R6 (6th selection round); for Counts Seq II: sequencing sample Seq II; for Counts (raw counts for peptide sequence), Seq I: NGS sample Seq I; for Counts (raw counts for peptide sequence), Seq II: NGS sample Seq II; for Percentage of the pool, averaged across the two sequencing samples: average of Seq I and Seq II; for Percentage of the pool, Seq I: counts normalised by total counts of NGS sample Seq I; for Percentage of the pool, Seq II: counts normalised by total counts of NGS sample Seq II
Procedure, shortened: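 Peptide–mRNA fusions were made by in vitro translation with a customised PURE express kit. The kit lacked release factor 1 and methionine and was supplemented with […] initiator tRNA carrying N-chloroacetyl-d-tyrosine. Thioether macrocycles were formed, then enriched and amplified over iterative rounds on CD59-biotin immobilised on streptavidin beads. NGS read counts per sequence were recorded after the 6th selection round.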

Sequence | Percentage Seq I [%] | Percentage Seq II [%] | Percentage Average [%] | Counts Seq I | Counts Seq II | Counts (raw counts for peptide sequence), Seq I | Counts (raw counts for peptide sequence), Seq II | Percentage of the pool, averaged across the two sequencing samples [%] | Percentage of the pool, Seq I [%] | Percentage of the pool, Seq II [%]
CYGSRTFIYAWS | 0.026 | 0.019 | 0.022 | 114 | 8 | – | – | – | – | –
LLGTRDYVRLWH | 0.144 | 0.139 | 0.142 | 630 | 60 | – | – | – | – | –
FVTGNSDHTRG | – | – | – | – | – | 52 | 4 | 0.011 | 0.012 | 0.009
ASWLTAPCYV | 0.032 | 0.019 | 0.025 | 138 | 8 | – | – | – | – | –
LVTGNRDHTRG | 0.023 | 0.030 | 0.027 | 100 | 13 | – | – | – | – | –
CFGRRADPDGI | 0.040 | 0.030 | 0.035 | 174 | 13 | – | – | – | – | –
SIRGGRDYTRG | 0.110 | 0.128 | 0.119 | 482 | 55 | – | – | – | – | –
GRLNECHVIWP | 0.317 | 0.302 | 0.310 | 1389 | 130 | – | – | – | – | –
LCAENPLRPR | 0.075 | 0.077 | 0.076 | 329 | 33 | – | – | – | – | –
LWGTHSYVYYRP | – | – | – | – | – | 46 | 7 | 0.013 | 0.011 | 0.016
CFTNRLDNSST | 0.072 | 0.067 | 0.070 | 314 | 29 | – | – | – | – | –
CFIRRSIESGTA | – | – | – | – | – | 56 | 10 | 0.018 | 0.013 | 0.023
WIRGSRFYRVI | 0.387 | 0.334 | 0.360 | 1692 | 144 | – | – | – | – | –
VWGNRWTRIYW | 0.037 | 0.035 | 0.036 | 161 | 15 | – | – | – | – | –
CPQLILRGWQ | 0.030 | 0.044 | 0.037 | 133 | 19 | – | – | – | – | –
SSWAQLPCRS | 0.041 | 0.051 | 0.046 | 180 | 22 | – | – | – | – | –
DYNRIVWGRGNAAAAAAARTGGG | – | – | – | – | – | 89 | 6 | 0.017 | 0.020 | 0.014
LWGTHSYTYYRP | – | – | – | – | – | 60 | 4 | 0.011 | 0.014 | 0.009

Sequence | Percentage Seq I [%] | Percentage Seq II [%] | Percentage Average [%] | Counts Seq I | Counts Seq II | Counts (raw counts for peptide sequence), Seq I | Counts (raw counts for peptide sequence), Seq II | Percentage of the pool, averaged across the two sequencing samples [%] | Percentage of the pool, Seq I [%] | Percentage of the pool, Seq II [%]
PAWGNRQIQYY | – | – | – | – | – | 58 | 3 | 0.010 | 0.013 | 0.007
ASWLPSPCKFN | 0.029 | 0.037 | 0.033 | 128 | 16 | – | – | – | – | –
DSRNQCHTWKT | – | – | – | – | – | 87 | 6 | 0.017 | 0.020 | 0.014
GYKNECHSFNW | – | – | – | – | – | 40 | 6 | 0.012 | 0.009 | 0.014
CFANRLYGSDSH | 0.031 | 0.035 | 0.033 | 135 | 15 | – | – | – | – | –
FVTSNRDHTRG | – | – | – | – | – | 23 | 6 | 0.010 | 0.005 | 0.014
DPYCPFFPEFR | – | – | – | – | – | 52 | 5 | 0.012 | 0.012 | 0.012
WTCHLRHDGPHA | 1.997 | 2.114 | 2.056 | 8737 | 911 | – | – | – | – | –
WRDRLDQCVL | 0.019 | 0.021 | 0.020 | 85 | 9 | – | – | – | – | –
YVTGNRDHTRG | – | – | – | – | – | 66 | 8 | 0.017 | 0.015 | 0.019
CFARRLSASSGT | 0.024 | 0.028 | 0.026 | 106 | 12 | – | – | – | – | –
SAWGNWQIQYY | 0.023 | 0.030 | 0.027 | 102 | 13 | – | – | – | – | –
HVFGNRPFTRG | – | – | – | – | – | 73 | 5 | 0.014 | 0.017 | 0.012
LWGTHSYIYYRP | 0.482 | 0.490 | 0.486 | 2109 | 211 | – | – | – | – | –
STRRDRLGLIC | 1.051 | 1.033 | 1.042 | 4600 | 445 | – | – | – | – | –
WILGSRWWTQR | 0.021 | 0.021 | 0.021 | 91 | 9 | – | – | – | – | –
QWNRWYGMDER | 0.084 | 0.097 | 0.091 | 369 | 42 | – | – | – | – | –
CFSWRLGPAEK | 0.020 | 0.028 | 0.024 | 87 | 12 | – | – | – | – | –
